The text below walks through data of the supplement of paper PMC12042874.

± gives the uncertainty stated by the source.

The series can be described thus: amyloid nucleation score (Sup35N fusion, yeast selection) (log enrichment); library NNK3; higher = more nucleation; inactive = no reads after selection. The method in brief: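 Sup35N was fused to peptides of 20 random codons and expressed in psi-negative yeast, which were induced with 100 μM copper sulfate for 24 hours and then grown on medium lacking adenine and uracil for 7 days at 30°C. Plasmid inserts from input and output were sequenced on Illumina. The nucleation score is the DiMSum log enrichment of output over input reads, centred on the mode score of non-aggregating sequences. Sequences with under 100 input reads were left out, and random libraries had three technical output replicates.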
For IKFGLTYSRSTMSGHSLKGY, the amyloid nucleation score entry is “inactive”.

IKLARSAYQLSSVNMRVKVI: the amyloid nucleation score result is “inactive”.

IKLHGQAHLIMSTLLPYMHK: the amyloid nucleation score entry was “inactive”.

With IKRSGGYVGFCRLVERSQRG, the amyloid nucleation score result is “inactive”.

Regarding IKYKDKGIWFLVSCGHFRLR, the amyloid nucleation score entry is “inactive”.

On to ILDDSSWNSLTANVVVWTYF, for which the amyloid nucleation score is -1.05 ± 1.3.

Regarding ILFLNHDMWQCDNDSLKAIH, the amyloid nucleation score result was “inactive”.

As for ILFRGPKLCKNGHVL, the amyloid nucleation score entry is “inactive”.

As for ILHLQSPGQATCANNKCLFP, the amyloid nucleation score entry is “inactive”.

ILIEVFLWSCYKYVNC: the amyloid nucleation score result is “inactive”.

Regarding ILIPNNFLLMQLDWLLIEF, the amyloid nucleation score entry is “inactive”.

Turning to ILIRREFGLFTNFSMYGSKA, the amyloid nucleation score result is “inactive”.

Consider ILKLQEQTSNGLAVSNESSC, for which the amyloid nucleation score result was “inactive”.

With ILKYCQTSLRGERPILLLDF, the amyloid nucleation score entry is “inactive”.

For ILLIINFG, the amyloid nucleation score worked out at 2.21 ± 0.065.

For ILLQVLIR, the amyloid nucleation score result was “inactive”.

For the substance ILPGL, the amyloid nucleation score entry is “inactive”.

As for ILQMVDVGMEICYTPVLAYF, the amyloid nucleation score entry is “inactive”.

ILRWRHMVVWSPNVHGVGAF: the amyloid nucleation score entry is “inactive”.

On to ILSLTFCVRRGEHGMASFCL, for which the amyloid nucleation score turned out to be 0.07 ± 0.46.

ILTIEDGIIYC: the amyloid nucleation score entry was “inactive”.

ILVFM: the amyloid nucleation score was found to be 0.509 ± 0.24.

Turning to ILVYSVLIV, the amyloid nucleation score entry is “inactive”.

For the substance IMDGFWCIDTGCLTAHGMWM, the amyloid nucleation score result is “inactive”.

On to IMEFYERMLFL, for which the amyloid nucleation score result is “inactive”.

As for IMGTYKSDLVAARFRFYV, the amyloid nucleation score result was “inactive”.

In the case of IMKTYLLMLSFFRNPPMVVL, the amyloid nucleation score result was “inactive”.

As for IMRMRLVCWTYKYNSLLPFV, the amyloid nucleation score result was “inactive”.

Take IMSRCKNSYASLATVSCRSL: the amyloid nucleation score result is “inactive”.

Turning to IMYSYNGRLCGTIELSFPGL, the amyloid nucleation score worked out at 0.814 ± 0.26.

Consider INLGKTSIRSIDRNNVCMLG, for which the amyloid nucleation score result was “inactive”.

In turn, INMALYSSLNLVG registered an amyloid nucleation score of 1.32 ± 0.078.

Substance INMNDSINGS yielded an amyloid nucleation score of 0.231 ± 0.62.

Substance INPLLR returned an amyloid nucleation score of 0.744 ± 0.2.

For the substance INSRKSHGLSEPSHYQT, the amyloid nucleation score result was “inactive”.

INTKECYHSGS: the amyloid nucleation score entry is “inactive”.

For the substance INWCSVTDRCHKGMCLKSAG, the amyloid nucleation score entry was “inactive”.

INYQLMW yielded an amyloid nucleation score of 0.9 ± 0.1.

Consider IPAELDRQNSSAVNTPYHEM, for which the amyloid nucleation score entry was “inactive”.

As to IPDDDFFLLALSTLN, the amyloid nucleation score result is “inactive”.

Regarding IPLDRMCFFSMK, the amyloid nucleation score entry was “inactive”.

With IPQNNLSDWLKCQMILVKEY, the amyloid nucleation score entry was “inactive”.

IPSWREWVYGVINWRAGSSP: the amyloid nucleation score result was “inactive”.

In the case of IPYKHIHRMPFFYHWQQRFG, the amyloid nucleation score entry was “inactive”.

IQLIILMASTGSLYLPSDWT registered an amyloid nucleation score of 0.349 ± 0.18.

In the case of IQNSRNNKHYATFGTQFFMS, the amyloid nucleation score result is “inactive”.

For the substance IQSAMSLIVIYHGK, the amyloid nucleation score amounted to 2.69 ± 0.076.

IQYLLLLSTTARFLWKCFSL registered an amyloid nucleation score of 0.37 ± 0.28.

Consider IRFPTHSMYSLLYKRFLSPD, for which the amyloid nucleation score is -0.744 ± 1.8.

On to IRGFVSIW, for which the amyloid nucleation score entry is “inactive”.

Consider IRGYFIPCGETLDEDLLFKQ, for which the amyloid nucleation score entry is “inactive”.

Take IRRRLEMLNTSLYSHI: the amyloid nucleation score result is “inactive”.

The substance IRTFIIQADSSVVPIKVFYR displayed an amyloid nucleation score of 1.55 ± 0.099.

As for IRTGDLVFVWYIRVTNTIPC, the amyloid nucleation score result is “inactive”.
